Target: T1, Gdi1 (GDP dissociation inhibitor) (UniProt P39958 1-451)
T1 sequence (looked up): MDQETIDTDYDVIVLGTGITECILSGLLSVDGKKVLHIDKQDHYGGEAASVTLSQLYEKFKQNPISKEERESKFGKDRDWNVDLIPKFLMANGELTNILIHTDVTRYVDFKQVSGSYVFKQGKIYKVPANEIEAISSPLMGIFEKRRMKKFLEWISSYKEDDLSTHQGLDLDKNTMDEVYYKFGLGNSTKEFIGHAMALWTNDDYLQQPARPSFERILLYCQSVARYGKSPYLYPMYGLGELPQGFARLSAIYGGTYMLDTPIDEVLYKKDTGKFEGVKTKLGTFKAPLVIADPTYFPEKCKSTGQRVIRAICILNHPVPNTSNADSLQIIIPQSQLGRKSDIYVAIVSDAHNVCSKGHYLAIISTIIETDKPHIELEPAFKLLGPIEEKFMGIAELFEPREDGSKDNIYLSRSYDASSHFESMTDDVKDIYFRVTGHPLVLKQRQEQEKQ
Experiment: SEC

B1: prenylated Ypt31 (mantGDP-labeled, of the Rab/GDI substrate) (natural protein, S. cerevisiae, UniProt P38555 1-223, looked up)
chain: MSSEDYGYDYDLLFKIVLIGDSGVGKSNLLSRFTKNEFNMDSKSTIGVEFATRTLEIDGKRIKAQIWDTAGQERYRAITSAYYRGAVGALIVYDISKSSSYENCNHWLSELRENADDNVAVGLIGNKSDLAHLRAVPTEESKTFAQENQLLFTETSALNSENVDKAFEELINTIYQKVSKHQMDLGDSSANGNANGASAPNGPTISLTPTPNENKKANGNNCC
modifications: prenylated (geranylgeranyl) at the C-terminus; loaded with mantGDP
Question: Does B1 bind?
Answer: Result: binds

B2: prenylated Ypt1 (mantGDP-labeled, of the Rab/GDI substrate) (natural protein)
chain: not shown
modifications: prenylated (geranylgeranyl) at the C-terminus; loaded with mantGDP
Question: Does B2 bind?
Answer: Result: binds
